Numbering of substitutions follows the chain as printed. Names may count otherwise.
T1: human FcγRIIb receptor protein (R&D Systems) (human, UniProt P31994 46-217)
T1 construct: Bought protein injected over captured antibody in Biacore; also called CD32b
T1 sequence (looked up): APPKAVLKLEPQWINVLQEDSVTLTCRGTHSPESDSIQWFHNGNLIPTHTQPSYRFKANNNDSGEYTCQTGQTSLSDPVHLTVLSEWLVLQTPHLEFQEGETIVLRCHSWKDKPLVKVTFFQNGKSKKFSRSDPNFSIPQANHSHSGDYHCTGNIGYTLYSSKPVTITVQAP

T2: mFcγRIIb (Mus musculus, UniProt P08101)
T2 construct: extracellular region, C-terminal His- and GST-tag; also called mouse FcγRII
T2 sequence (receptor extracellular region, looked up): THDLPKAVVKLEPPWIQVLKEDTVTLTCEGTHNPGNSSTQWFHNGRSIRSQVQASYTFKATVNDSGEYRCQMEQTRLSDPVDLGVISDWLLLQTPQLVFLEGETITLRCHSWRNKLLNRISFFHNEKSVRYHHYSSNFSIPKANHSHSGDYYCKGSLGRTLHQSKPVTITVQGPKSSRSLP

T3: cynoFcγRIIb (Macaca fascicularis, UniProt A0A140HDP4)
T3 construct: extracellular region, C-terminal His- and GST-tag; also called cynomolgus monkey FcγRIIb
T3 sequence (receptor extracellular region): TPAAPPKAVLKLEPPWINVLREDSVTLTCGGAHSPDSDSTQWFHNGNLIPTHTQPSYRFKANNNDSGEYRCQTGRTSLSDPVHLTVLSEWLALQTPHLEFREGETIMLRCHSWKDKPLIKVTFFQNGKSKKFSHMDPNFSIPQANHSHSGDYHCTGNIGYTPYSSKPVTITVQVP

B1: A330K (antibody, human IgG1, kappa)
heavy: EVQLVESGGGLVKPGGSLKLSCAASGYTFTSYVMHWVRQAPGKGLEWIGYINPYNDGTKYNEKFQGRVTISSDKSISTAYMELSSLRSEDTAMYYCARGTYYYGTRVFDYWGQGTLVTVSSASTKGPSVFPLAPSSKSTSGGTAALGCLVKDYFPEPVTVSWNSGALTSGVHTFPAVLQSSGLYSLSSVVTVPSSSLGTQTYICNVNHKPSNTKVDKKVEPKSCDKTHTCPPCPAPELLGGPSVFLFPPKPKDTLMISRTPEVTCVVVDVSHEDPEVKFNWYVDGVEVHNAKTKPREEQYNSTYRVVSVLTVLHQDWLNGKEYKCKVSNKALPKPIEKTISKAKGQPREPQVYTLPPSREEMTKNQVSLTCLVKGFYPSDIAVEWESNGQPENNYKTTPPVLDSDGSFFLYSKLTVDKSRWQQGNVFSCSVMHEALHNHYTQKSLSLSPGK
light: DIVMTQSPATLSLSPGERATLSCRSSKSLQNVNGNTYLYWFQQKPGQSPQLLIYRMSNLNSGVPDRFSGSGSGTEFTLTISSLEPEDFAVYYCMQHLEYPITFGAGTKLEIKRTVAAPSVFIFPPSDEQLKSGTASVVCLLNNFYPREAKVQWKVDNALQSGNSQESVTEQDSKDSTYSLSSTLTLSKADYEKHKVYACEVTHQGLSSPVTKSFNRGEC
notes: HuAM4G7 anti-CD19 IgG1 (m1) with this Fc substitution, EU index; copies: 2 + 2
B2: A330S (antibody, human IgG1, kappa)
heavy: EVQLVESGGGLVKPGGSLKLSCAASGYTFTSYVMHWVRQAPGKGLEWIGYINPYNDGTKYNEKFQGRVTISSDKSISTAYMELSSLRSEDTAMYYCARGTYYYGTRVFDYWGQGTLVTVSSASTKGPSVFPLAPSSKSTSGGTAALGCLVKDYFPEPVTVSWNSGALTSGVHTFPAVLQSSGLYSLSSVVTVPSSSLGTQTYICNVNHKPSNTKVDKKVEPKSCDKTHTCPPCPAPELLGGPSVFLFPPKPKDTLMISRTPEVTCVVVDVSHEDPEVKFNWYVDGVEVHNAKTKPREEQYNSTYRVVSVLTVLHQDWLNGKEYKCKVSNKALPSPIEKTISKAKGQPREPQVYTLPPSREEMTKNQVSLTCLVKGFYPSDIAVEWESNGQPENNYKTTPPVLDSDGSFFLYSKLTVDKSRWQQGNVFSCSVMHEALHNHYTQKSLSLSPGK
light: B1 light
notes: as for B1
B3: H268D/K326D/L328Y (antibody, human IgG1, kappa)
heavy: EVQLVESGGGLVKPGGSLKLSCAASGYTFTSYVMHWVRQAPGKGLEWIGYINPYNDGTKYNEKFQGRVTISSDKSISTAYMELSSLRSEDTAMYYCARGTYYYGTRVFDYWGQGTLVTVSSASTKGPSVFPLAPSSKSTSGGTAALGCLVKDYFPEPVTVSWNSGALTSGVHTFPAVLQSSGLYSLSSVVTVPSSSLGTQTYICNVNHKPSNTKVDKKVEPKSCDKTHTCPPCPAPELLGGPSVFLFPPKPKDTLMISRTPEVTCVVVDVSDEDPEVKFNWYVDGVEVHNAKTKPREEQYNSTYRVVSVLTVLHQDWLNGKEYKCKVSNDAYPAPIEKTISKAKGQPREPQVYTLPPSREEMTKNQVSLTCLVKGFYPSDIAVEWESNGQPENNYKTTPPVLDSDGSFFLYSKLTVDKSRWQQGNVFSCSVMHEALHNHYTQKSLSLSPGK
light: B1 light
notes: HuAM4G7 anti-CD19 IgG1 (m1) with these Fc substitutions, EU index; copies: 2 + 2
B4: H268D/L328Y/I332E (antibody, human IgG1, kappa)
heavy: B3 heavy with D330K, I336E
light: B1 light
notes: as for B3
B5: K326A (antibody, human IgG1, kappa)
heavy: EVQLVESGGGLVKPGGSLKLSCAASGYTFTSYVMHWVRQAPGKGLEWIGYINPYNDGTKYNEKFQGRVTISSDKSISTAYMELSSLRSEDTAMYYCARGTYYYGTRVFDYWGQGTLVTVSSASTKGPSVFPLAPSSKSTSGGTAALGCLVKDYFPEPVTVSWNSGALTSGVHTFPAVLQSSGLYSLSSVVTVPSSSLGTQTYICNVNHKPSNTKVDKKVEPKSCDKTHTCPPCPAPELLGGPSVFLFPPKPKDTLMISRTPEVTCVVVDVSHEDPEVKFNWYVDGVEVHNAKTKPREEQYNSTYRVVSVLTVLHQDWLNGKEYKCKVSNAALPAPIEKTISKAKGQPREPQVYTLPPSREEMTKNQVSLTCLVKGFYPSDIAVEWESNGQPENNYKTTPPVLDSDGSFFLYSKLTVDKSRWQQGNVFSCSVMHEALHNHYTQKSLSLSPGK
light: B1 light
notes: as for B1
B6: K326D/L328Y/I332E (antibody, human IgG1, kappa)
heavy: B3 heavy with D272H, I336E
light: B1 light
notes: as for B3
B7: K326E (antibody, human IgG1, kappa)
heavy: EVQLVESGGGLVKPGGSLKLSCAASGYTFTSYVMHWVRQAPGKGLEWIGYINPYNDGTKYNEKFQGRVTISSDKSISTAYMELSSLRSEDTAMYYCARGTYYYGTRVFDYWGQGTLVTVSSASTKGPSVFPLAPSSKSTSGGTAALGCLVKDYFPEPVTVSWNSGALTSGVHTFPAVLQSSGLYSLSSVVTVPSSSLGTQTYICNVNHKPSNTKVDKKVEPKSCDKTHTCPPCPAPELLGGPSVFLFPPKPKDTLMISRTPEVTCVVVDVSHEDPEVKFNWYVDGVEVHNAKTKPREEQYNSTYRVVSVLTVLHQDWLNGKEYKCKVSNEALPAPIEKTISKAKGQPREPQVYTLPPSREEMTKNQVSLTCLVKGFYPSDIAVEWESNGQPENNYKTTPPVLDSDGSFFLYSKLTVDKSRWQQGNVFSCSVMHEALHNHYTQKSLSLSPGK
light: B1 light
notes: as for B1
B8: K326W (antibody, human IgG1, kappa)
heavy: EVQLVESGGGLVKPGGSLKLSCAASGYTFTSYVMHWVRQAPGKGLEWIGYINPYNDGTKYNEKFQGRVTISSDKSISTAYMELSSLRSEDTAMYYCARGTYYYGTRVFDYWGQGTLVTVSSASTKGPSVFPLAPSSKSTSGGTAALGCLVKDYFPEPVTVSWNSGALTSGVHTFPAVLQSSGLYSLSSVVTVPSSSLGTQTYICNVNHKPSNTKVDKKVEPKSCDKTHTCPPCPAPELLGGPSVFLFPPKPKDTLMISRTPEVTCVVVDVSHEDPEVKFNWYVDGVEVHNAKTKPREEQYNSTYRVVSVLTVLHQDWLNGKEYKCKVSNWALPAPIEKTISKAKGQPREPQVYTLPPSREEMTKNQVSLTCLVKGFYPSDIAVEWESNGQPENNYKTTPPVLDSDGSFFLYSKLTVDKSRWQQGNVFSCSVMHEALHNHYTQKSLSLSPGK
light: B1 light
notes: as for B1
B9: L234W/L328Y/I332E (antibody, human IgG1, kappa)
heavy: B3 heavy with L238W, D272H, D330K, I336E
light: B1 light
notes: as for B3
B10: L234W/S239D/L328Y (antibody, human IgG1, kappa)
heavy: B3 heavy with L238W, S243D, D272H, D330K
light: B1 light
notes: as for B3
B11: L235F/H268D/L328Y (antibody, human IgG1, kappa)
heavy: B3 heavy with L239F, D330K
light: B1 light
notes: as for B3
B12: L235F/L328Y/I332E (antibody, human IgG1, kappa)
heavy: B3 heavy with L239F, D272H, D330K, I336E
light: B1 light
notes: as for B3
B13: L235F/S239D/L328Y (antibody, human IgG1, kappa)
heavy: B3 heavy with L239F, S243D, D272H, D330K
light: B1 light
notes: as for B3
B14: L328Y/I332E (antibody, human IgG1, kappa)
heavy: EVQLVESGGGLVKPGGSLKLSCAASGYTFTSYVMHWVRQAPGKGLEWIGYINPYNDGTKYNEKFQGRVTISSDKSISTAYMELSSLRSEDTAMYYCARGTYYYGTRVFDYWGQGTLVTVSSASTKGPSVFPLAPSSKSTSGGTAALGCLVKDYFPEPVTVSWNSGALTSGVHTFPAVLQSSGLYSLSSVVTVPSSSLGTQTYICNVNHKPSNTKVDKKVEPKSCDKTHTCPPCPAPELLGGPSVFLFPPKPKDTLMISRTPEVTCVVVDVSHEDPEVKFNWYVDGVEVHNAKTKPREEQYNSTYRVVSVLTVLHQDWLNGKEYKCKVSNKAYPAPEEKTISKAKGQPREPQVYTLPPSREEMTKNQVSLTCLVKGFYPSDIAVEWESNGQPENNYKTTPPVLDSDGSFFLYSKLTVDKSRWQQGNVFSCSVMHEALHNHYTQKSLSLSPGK
light: B1 light
notes: as for B3
B15: P331S (antibody, human IgG1, kappa)
heavy: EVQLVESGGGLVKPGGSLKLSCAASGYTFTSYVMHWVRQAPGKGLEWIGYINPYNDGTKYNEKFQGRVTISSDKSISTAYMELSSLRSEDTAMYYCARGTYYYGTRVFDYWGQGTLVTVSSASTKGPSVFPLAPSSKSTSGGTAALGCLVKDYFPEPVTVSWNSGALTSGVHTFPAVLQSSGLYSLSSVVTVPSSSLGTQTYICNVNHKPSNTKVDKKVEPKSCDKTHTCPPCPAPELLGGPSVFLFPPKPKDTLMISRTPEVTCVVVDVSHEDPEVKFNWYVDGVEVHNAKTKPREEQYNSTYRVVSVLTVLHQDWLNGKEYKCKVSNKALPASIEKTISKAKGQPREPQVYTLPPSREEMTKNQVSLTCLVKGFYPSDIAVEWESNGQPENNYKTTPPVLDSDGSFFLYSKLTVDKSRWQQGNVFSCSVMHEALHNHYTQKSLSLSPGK
light: B1 light
notes: as for B1
B16: S239D/H268D/L328F (antibody, human IgG1, kappa)
heavy: B3 heavy with S243D, D330K, Y332F
light: B1 light
notes: as for B3
B17: S239D/H268D/L328F/I332E (antibody, human IgG1, kappa)
heavy: B3 heavy with S243D, D330K, Y332F, I336E
light: B1 light
notes: as for B3
B18: S239D/H268D/L328W (antibody, human IgG1, kappa)
heavy: B3 heavy with S243D, D330K, Y332W
light: B1 light
notes: as for B3
B19: S239D/H268D/L328W/I332E (antibody, human IgG1, kappa)
heavy: B3 heavy with S243D, D330K, Y332W, I336E
light: B1 light
notes: as for B3

Target: T1, human FcγRIIb receptor protein (R&D …)
Assay: SPR

Binder | Fold vs WT IgG1 | Kd | binding result
B1 | 1.55 fold | 947 nM | 
B2 | 0.0635 fold | 23100 nM | 
B3 | 18.6 fold | 78.9 nM | 
B4 | 4.89 fold | 300 nM | 
B5 |  |  | no binding
B6 | 2.65 fold | 553 nM | 
B7 | 6.09 fold | 241 nM | 
B8 | 3.04 fold | 483 nM | 
B9 | 6.32 fold | 232 nM | 
B10 | 32.8 fold | 44.8 nM | 
B11 | 3.97 fold | 370 nM | 
B12 | 3.31 fold | 443 nM | 
B13 | 6.82 fold | 215 nM | 
B14 | 2.08 fold | 705 nM | 
B15 | 0.0372 fold | 39400 nM | 
B16 | 8.79 fold | 167 nM | 
B17 | 53.2 fold | 27.6 nM | 
B18 | 51.1 fold | 28.7 nM | 
B19 | 27.8 fold | 52.7 nM | 

Target: T2, mFcγRIIb
Assay: SPR
Method: (§1) Variants were screened for receptor affinity using Biacore™ technology, also referred to as Biacore herein, a surface plasmon resonance (SPR) based technology for studying biomolecular interactions in real time. SPR measurements were performed using a Biacore 3000 instrument (Biacore, Piscataway, N.J.). A protein A/G (Pierce Biotechnology) CM5 biosensor chip (Biacore) was generated using a standard primary amine coupling protocol. All measurements were performed using HBS-EP buffer (10 mM HEPES pH 7.4, 0.15 M NaCl, 3 mM EDTA, 0.005% vol/vol surfactant P20, Biacore). Antibodies at 20 nM or 50 nM in HBS-EP buffer were immobilized on the protein A/G surface and FcγRs were injected. After each cycle, the surface was regenerated by injecting glycine buffer (10 mM, pH 1.5). Data were processed by zeroing time and response before the injection of FcγR and by subtracting appropriate nonspecific signals (response of reference channel and injection of running buffer). Kinetic analyses were performed by global fitting of binding data with a 1:1 Langmuir binding model using BIAevaluation software (Biacore).
(§2) Variant antibodies were tested for their affinity to mouse or cynologous monkey FcγRs using Biacore SPR as described above. Specifically, antibodies were first immobilized on a protein A/G chip to high density, and then followed by injections of the extracellular domain of the mouse or cynologous monkey FcγR of interest. Both association and dissociation phases were tracked in real time using the Biacore technology.

Binder | Fold vs WT IgG1 (Kd)
B1 | 0.296 fold
B2 | 0.054 fold
B3 | 19.4 fold
B4 | 1.28 fold
B5 | 0.164 fold
B6 | 1.87 fold
B7 | 0.605 fold
B8 | 0.429 fold
B9 | 0.617 fold
B10 | 44.1 fold
B11 | 6.82 fold
B12 | 0.843 fold
B13 | 31.2 fold
B14 | 0.434 fold
B15 | 0.085 fold
B16 | 6.01 fold
B17 | 2.59 fold
B18 | 47.8 fold
B19 | 4.81 fold

Target: T3, cynoFcγRIIb
Assay: SPR
Method: as §1, §2

Binder | Fold vs WT IgG1 (Kd)
B1 | 2.02 fold
B2 | 0.255 fold
B3 | 9.38 fold
B4 | 4.08 fold
B5 | 1.36 fold
B6 | 4.78 fold
B7 | 1.03 fold
B8 | 0.078 fold
B9 | 2.04 fold
B10 | 5.92 fold
B11 | 3.17 fold
B12 | 4.11 fold
B13 | 5.2 fold
B14 | 4.6 fold
B15 | 0.25 fold
B16 | 3.17 fold
B17 | 27.6 fold
B18 | 23.7 fold
B19 | 4.55 fold
